Tests used:
[1] = test system: murine bone marrow derived macrophages; assay: Efferocytosis in bone marrow derived macrophages (pHrodo-loaded apoptotic jurkat cells); assay type: cell-based, mouse; settings: 100 nM for 5 days during monocyte differentiation
Text: This study was designed to investigate the in vivo potential of test compounds to modulate efferocytosis in murine bone marrow derived macrophages. Efferocytosis refers to the process by which dying/dead cells (e.g. apoptotic or necrotic cells) are removed by phagocytic cells. During efferocytosis, the cell membrane of phagocytic cells engulfs the apoptotic cell, forming a large fluid-filled vesicle containing the dead cell. Efferocytosis can be performed not only by ‘professional’ phagocytic cells such as macrophages or dendritic cells, but also by many other cell types including epithelial cells, fibroblasts and other cells. To distinguish them from living cells, apoptotic cells carry specific ‘eat me’ signals, such as the presence of phosphatidyl serine (resulting from phospholipid flip-flop) or calreticulin on the outer leaflet of the cell membrane. […] Like phagocytosis, acidification of the endosome, is a central aspect of endosome maturation, which can be readily monitored through the use of a pH sensitive probe, as described herein.
Methods and protocol. […] Confocal images were captured in Zeiss 710 Confocal Laser Scanning Microscope equipped with 4 lasers and images were captured and analyzed using Zeiss Zen 2010 software. For quantification, the intensity of red fluorescence in each field were measured and the arithmetic mean was calculated and represented graphically.

[2] = test system: LPS-induced leukocyte infiltration into the mouse lung; assay: Murine model of LPS-induced pulmonary inflammation; assay type: in vivo; settings: single IV 3 mg/kg the day before LPS 10 μg/mouse; lavage 24 hours later
Text: This study was designed to investigate the in vivo potential of test compounds in a murine model of neutrophil accumulation in the lung induced by airway instillation of lipopolysaccharide (LPS).
Treatment Regimen. Sixty-four (64) C57BL/6 mice (Jackson Laboratory, Bar Harbor, Me., USA, 8 week old females) were assigned to study groups of 8 mice, and housed in specific pathogen-free conditions with sterile food and water.
In brief, animals received a single intravenous injection of the vehicle of Fc-HRS(2-60) (20 mM Histidine/125 mM NaCl/10 mM Methionine/3% Sucrose/0.02% PS20, pH 6.9), Fc-HRS(2-60) (1, 3, or 10 mg/kg), or HRS(2-60)-COMP (3 mg/kg). The following day, mice were anesthetized by isoflurane inhalation and, using a gavage needle and attached syringe, 50 μL of LPS (Sigma L3024, E. coli 0111-B4, 10 μg/mouse) formulated in PBS, or PBS alone, was delivered to the back of the oral soft palate for inhalation. […]
Flow Cytometry Analysis. […] NRP2 was detected by addition of 25 μL of rabbit anti-mouse NRP2 (Cell Signaling Technology) at 10 μg/mL in FWB for 1 h in the dark on ice, and cells were then washed (data not shown). […]
Using GraphPad Prism 7, results were analyzed by one-way ANOVA followed by Dunn's multiple comparison test using the LPS/Vehicle group as the comparator. […]

B1: HRS(2-60)-COMP: pentamer of HRS(2-60): HARS aa 2-60 fused to COMP pentameric domain (aa 28-73); made His tagged; SEQ ID NO:175 without tags (protein)
chain: ERAALEELVKLQGERVRGLKQQKASAELIEEEVAKLLKLKAQLGPDESKQKFVLKTPKGGGGSGGGGSSDLGPQMLRELQETNAALQDVRELLRQQVREITFLKNTVMECDAC
modifications: His tag; Made in Lab - HRS-COMP Fusion Protein
efferocytosis (spectral shift of pH sensitive dye) [1]: profound inhibition of efferocytosis
number of airway neutrophils accumulating in response to LPS [2]: significantly reduced
